Data: US9804152B1, “Human ex vivo skin model and its use in methods of identifying modulators of skin inflammation” (The Procter & Gamble Company, priority 2012, dated 2017)
Marks after values point to notes of the source that are not given here.

Tests used:
Format in all cases: cell-based
[1] = test system: ex vivo human skin sample; experiment: Inducers of inflammation: inflammation marker gene expression in ex vivo skin samples (PCR); conditions: for CALML5 Up-Down Regulation (relative to control) / DEFB4 Up-Down Regulation (relative to control) / FLG Up-Down Regulation (relative to control) / IL-6 Up-Down Regulation (relative to control) / IL-8 Up-Down Regulation (relative to control) / KRT6A Up-Down Regulation (relative to control) / KRT10 Up-Down Regulation (relative to control) / S100A7 Up-Down Regulation (relative to control) / TNF-α Up-Down Regulation (relative to control): IL-17 or IL-22 alone, 96 hours
Description: (§1) This Example describes the materials and methods used in preparing ex vivo skin samples for use according to the methods disclosed herein. Materials used in preparation of ex vivo skin samples for use in the disclosed screening methods included: Dulbecco's Modified Eagle Medium (DMEM) plus Glutamax, antibiotic and antimycotics, 1× phosphate-buffered saline (PBS), 150×15 mm sterile culture dishes, sterile gauze 4×4, disposable safety scalpels, 4 mm disposable biopsy punch, 6-well cell-culture inserts, disinfected tweezers, cotton-tipped applicators, 6-well culture plates, ruled, disinfected cutting mat (12×12), scraper handle, tissue freezing medium, biopsy cassettes, frozen-tissue freezing vessels, 10% formalin, shipping containers for fixed tissue, and biohazard/sharps containers. Media was prepared in advance of the arrival of ex vivo skin. The skin arrived with the dermis (fat) side down on sterile DMEM soaked gauze in a sterile culture dish. The culture dish was taped shut and in a biohazard zip-lock baggie on an ice pack in a secondary container.
(§2) On arrival, the skin was removed from the bag and soaked in 3×DMEM media (3× refers to concentration of antibiotic and antimycotics) and stored at 4° C. for 1 hour. After 1 hour, the skin was removed from the 3×DMEM and rinsed with sterile 1×PBS. The skin was placed in a clean culture dish containing gauze soaked with 1×DMEM. The sample was put in culture the same day as arrival. If necessary, however, the ex vivo skin samples can be stored at 4° C. overnight.
In preparation for culture, the following was performed: on a cutting mat, the skin was flipped over so that the epidermis was down and the subcutis (fat) was exposed. The fat was removed with a disposable scalpel by carefully grasping one corner of the skin with sterile serrated forceps and scraping the fat away with the blade held at a 45° angle to the skin. After the fat was removed, the surgical edges were cut off with a scalpel using a scraper as a straight edge guide and to hold the skin in place. Using the scraper as a guide, the skin was cut into 1.25 cm (2×2 squares on grid) wide strips using a ruler to measure the width. The strip was rinsed in a 100 mm culture dish containing 1×PBS. The strips were cut into 1.25 cm^2 squares and placed in a 100 mm culture dish on 1×DMEM-soaked gauze until they were put into culture 30 minutes later.
Culture plates were prepared that included 2.5 ml of media or media with treatment (e.g., a candidate modulator, an inflammation inducer, and/or an inhibitor of inflammation) in each well of a 6-well plate. One Millicell culture insert was added to each well and 100 μl of 1× DMEM was put in the center of each insert membrane. Squares of skin tissue were selected randomly and placed into each of the inserts (one piece of skin per insert), on top of the media on the membrane. The plates were stored at 33° C., with fresh media changes daily. As a control, baseline tissue measurements were collected from excess waste (cryogenics were used for snap-freezing). Baseline biopsy collection included two 4 mm punches for an MTT colorimetric assay (described below); one 4 mm punch was snap-frozen in OCT tissue compound for fresh histology; one 4 mm punch was fixed in 10% formalin and sent out for paraffin embedding. Expression measurements of inflammation marker genes were performed using PCR and primers appropriate to the known sequence of the gene(s) of interest.
Culturing and treatment of the ex vivo skin model comprised replicates of n=5. Before experimental treatment, compounds (e.g., a candidate modulator, an inflammation inducer, or a suppressor of inflammation) were solubilized in appropriate solvents (including PBS, media, alcohol, and DMSO). Appropriate dilutions were made for treatment and 15 ml of media was used per plate per day for treatment, with 2.5 ml of media per well under the cell culture insert. Media was pre-warmed and changed every day during the experiment.

[2] = test system: ex vivo human skin sample; experiment: Inducers of inflammation: inflammation marker secreted into the media by ex vivo skin samples (ELISA)
Description: as §1, §2
In preparation for culture, the following was performed: on a cutting mat, the skin was flipped over so that the epidermis was down and the subcutis (fat) was exposed. The fat was removed with a disposable scalpel by carefully grasping one corner of the skin with sterile serrated forceps and scraping the fat away with the blade held at a 45° angle to the skin. After the fat was removed, the surgical edges were cut off with a scalpel using a scraper as a straight edge guide and to hold the skin in place. […]

[3] = test system: ex vivo human skin sample; experiment: Histological analysis of ex vivo skin samples; conditions: IL-22 at 20 ng/mL, biopsied six days after treatment, vs untreated sample at 24 hours
Method: The first sample was analyzed 24 hours after being collected (i.e., biopsied) from an untreated ex vivo skin sample, and the second sample was collected (i.e., biopsied) from an ex vivo skin sample six days after the skin sample was treated with IL-22 at 20 ng/mL. […] Also consistent was the effect of 10 μM clobetasol in inhibiting inflammation, as measured by a reduction in marker gene expression. In particular, S100A7 was induced about 34-fold relative to untreated skin samples, with clobetasol leading to about 26-fold increase in expression relative to the untreated control. For IL-8, induction was about 16-fold and clobetasol reduced that to about 3-fold. For IL-6, induction was about 6-fold and clobetasol inhibited that value to about 0.3-fold relative to control values. For DEFB4, induction was about 800-fold and clobetasol reduced that increase to about 200-fold relative to controls.

With “IL-1β: pro-inflammatory cytokine used as inducer of inflammation” the “induction of inflammation in ex vivo skin samples, in words” value [1] was “shown to induce inflammation in ex vivo skin samples”, the “fold-change in IL-8 expression” value ([1]; 100 pg/ml IL-1β, after 1 day) was 3.28 fold and the “fold-change in TNF-α expression” value ([1]; 100 pg/ml IL-1β, after 1 day) was −1.21 fold. For the same molecule, the “fold-change in IL-8 expression” value ([1]; 100 pg/ml IL-1β, after 2 days) was 2.58 fold, the “fold-change in TNF-α expression” value ([1]; 100 pg/ml IL-1β, after 2 days) was 1.34 fold and the “fold-change in IL-8 expression” value ([1]; 100 pg/ml IL-1β, after 3 days) was 7.88 fold. For the same molecule, the “fold-change in TNF-α expression” value ([1]; 100 pg/ml IL-1β, after 3 days) was 1.37 fold, the “fold-change in IL-8 expression” value ([1]; 100 pg/ml IL-1β, after 4 days) was 5.47 fold and the “fold-change in TNF-α expression” value ([1]; 100 pg/ml IL-1β, after 4 days) was 2.67 fold. The “fold-change in IL-8 expression” value ([1]; 100 pg/ml IL-1β, after 6 days) was 2.42 fold, the “fold-change in TNF-α expression” value ([1]; 100 pg/ml IL-1β, after 6 days) was −1.29 fold and the “fold-change in IL-8 expression” value ([1]; 100 pg/ml IL-1β, after 10 days) was 9.02 fold. For the same molecule, the “fold-change in TNF-α expression” value ([1]; 100 pg/ml IL-1β, after 10 days) was 1.19 fold, the “HMGCR expression relative to untreated controls, at termination” value ([1]; 100 pg/ml IL-1β, end of 10-day experiment) was “about 0.8 fold” and the “ceramide synthase 3, increase in expression” value ([1]; IL-1β, both 10 pg/ml and 100 pg/ml, day 10) was roughly 1.5 fold. For the same molecule, the “TNF-α expression (amount of biomarker present in the media)” value ([2]; IL-1β 10 ng/ml on first four days of eight-day experiment, increase from about 65 pg/ml) was “about 120 pg/ml” and the “IL-6 expression (amount of biomarker present in the media)” value ([2]; IL-1β 10 ng/ml on first four days of eight-day experiment, increase from an average of about 8.2 ng/ml) was no more than 12.3 ng/mL.

B1: IL-22: pro-inflammatory cytokine used as inducer of inflammation; also inducer of cell proliferation (protein, UniProt Q9GZX6 34-179, looked up)
Interleukin-22: APISSHCRLDKSNFQQPYITNRTFMLAKEASLADNNTDVRLIGEKLFHGVSMSERCYLMKQVLNFTLEEVLFPQSDRFQPYMQEVVPFLARLSNRLSTCHIEGDDLHIQRNVQKLKDTVKKLGESGEIKAIGELDLLFMSLRNACI
In the case of B1, the “induction of inflammation in ex vivo skin samples, in words” value [1] is reported as “shown to induce inflammation in ex vivo skin samples”, the “DEFB4 expression relative to an untreated ex vivo skin sample” value ([1]; 2 ng/ml IL-22) is reported as 0.00 and the “KRT10 fold-expression level relative to an untreated ex vivo skin sample” value ([1]; 2 ng/ml IL-22) is reported as “about 0.00 fold”. The “DEFB4 expression relative to an untreated ex vivo skin sample” value ([1]; 20 ng/ml IL-22) was “about 3.00”, the “KRT10 fold-expression level relative to an untreated ex vivo skin sample” value ([1]; 20 ng/ml IL-22) was “about −3.00 fold” and the “DEFB4 expression relative to an untreated ex vivo skin sample” value ([1]; 200 ng/ml IL-22) was “about 20.00”. The “KRT10 fold-expression level relative to an untreated ex vivo skin sample” value ([1]; 200 ng/ml IL-22) was “about −18.00 fold”, the “CALML5 Up-Down Regulation (relative to control)” value ([1]; 2 ng/ml) was 1.17* and the “DEFB4 Up-Down Regulation (relative to control)” value ([1]; 2 ng/ml) was −1.03. The “FLG Up-Down Regulation (relative to control)” value ([1]; 2 ng/ml) was 1.28, the “IL-6 Up-Down Regulation (relative to control)” value ([1]; 2 ng/ml) was 1.35 and the “IL-8 Up-Down Regulation (relative to control)” value ([1]; 2 ng/ml) was 1.71*. For the same molecule, the “KRT6A Up-Down Regulation (relative to control)” value ([1]; 2 ng/ml) was −1.16, the “KRT10 Up-Down Regulation (relative to control)” value ([1]; 2 ng/ml) was 1.40 and the “S100A7 Up-Down Regulation (relative to control)” value ([1]; 2 ng/ml) was 1.02. The “TNF-α Up-Down Regulation (relative to control)” value ([1]; 2 ng/ml) was 1.95*, the “CALML5 Up-Down Regulation (relative to control)” value ([1]; 20 ng/ml) was −2.29* and the “DEFB4 Up-Down Regulation (relative to control)” value ([1]; 20 ng/ml) was 2.69*. For the same molecule, the “FLG Up-Down Regulation (relative to control)” value ([1]; 20 ng/ml) was −10.55*, the “IL-6 Up-Down Regulation (relative to control)” value ([1]; 20 ng/ml) was 1.30 and the “IL-8 Up-Down Regulation (relative to control)” value ([1]; 20 ng/ml) was 1.43. The “KRT6A Up-Down Regulation (relative to control)” value ([1]; 20 ng/ml) was 1.32, the “KRT10 Up-Down Regulation (relative to control)” value ([1]; 20 ng/ml) was −2.69* and the “S100A7 Up-Down Regulation (relative to control)” value ([1]; 20 ng/ml) was 2.04*. The “TNF-α Up-Down Regulation (relative to control)” value ([1]; 20 ng/ml) was 1.56*, the “CALML5 Up-Down Regulation (relative to control)” value ([1]; 200 ng/ml) was −4.61* and the “DEFB4 Up-Down Regulation (relative to control)” value ([1]; 200 ng/ml) was 20.23*. The “FLG Up-Down Regulation (relative to control)” value ([1]; 200 ng/ml) was −13.37*, the “IL-6 Up-Down Regulation (relative to control)” value ([1]; 200 ng/ml) was 1.31 and the “IL-8 Up-Down Regulation (relative to control)” value ([1]; 200 ng/ml) was 1.72*. The “KRT6A Up-Down Regulation (relative to control)” value ([1]; 200 ng/ml) was 1.08, the “KRT10 Up-Down Regulation (relative to control)” value ([1]; 200 ng/ml) was −17.54* and the “TNF-α Up-Down Regulation (relative to control)” value ([1]; 200 ng/ml) was 1.33*. The “histology: skin cell proliferation (basal layer)” value [3] was “clearly exhibits a proliferative basal layer” and the “IL-8 secreted into the media” value ([2]; 20 ng/ml IL-22 only, day 4, untreated about 5,800 pg/ml) was “about 5,500 pg/ml”.
